These results are taken from patent US20230357378A1 (NEURACLE SCIENCE, published 2023).

Assay [1] concerns the target T1, Peptide F6-BSA (C-terminal Cys conjugated to BSA).
T1 construct: BSA-conjugated human FAM19A5 peptide fragment F6, lane 8; size printed as 103 kDa
T1 peptide: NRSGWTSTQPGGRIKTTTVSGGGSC
Nature of the assay: Western blot, 300 ng antigen per well, anti-rabbit IgG (Fc specific)-HRP 1:4000.

Assay [2] deals with T2, Peptide F4-BSA (C-terminal Cys conjugated to BSA).
T2 construct: BSA-conjugated human FAM19A5 peptide fragment F4, lane 6; size printed as 106 kDa
T2 peptide: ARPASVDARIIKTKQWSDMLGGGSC
Described as above.

For assay [3], the target named is T3, Peptide F1-BSA (C-terminal Cys conjugated to BSA).
T3 construct: BSA-conjugated human FAM19A5 peptide fragment F1, lane 3; size printed as 105 kDa
T3 peptide: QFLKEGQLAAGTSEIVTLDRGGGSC
The assay is described as above.

The target in assay [4] is FAM19A1-flag. Description: immunoblot of vector and flag-tagged FAM19A1 to FAM19A5 samples.

B1: 1-65-scFv-rabbit-Fc-SSS (Fc fusion)
VH: AVTLDESGGGLQTPGGALSLVCKASGFTFSSYQMGWVRQAPGKGLEWVGVINKSGSDTSYGSAVKGRATISRDNGQSTVRLQLNNLRAEDTGTYFCAKGSASYITAATIDAWGHGTEVIVSS
VL: ALTQPSSVSANPGETVKITCSGGGSSGYGYGWYQQKSPSSAPLTVIYWNDKRPSDIPSRFSGSKSGSTHTLTITGVQAEDEAVYFCGNDDYSSDSGYVGVFGAGTTLTVL
notes: scFv of 1-65 fused to rabbit Fc ('SSS'), used as primary antibody in the Western blot; also called anti-FAM19A5 antibody 1-65; monoclonal antibody clone 1-65
With B1, the binding result in assay [1], in assay [2] and in assay [3] was “no binding (tested: 2 ug/ml)” in each case.

B2: chimeric anti-FAM19A5-IgG2/4 monoclonal antibody (1-65) (antibody, V domains shown)
VH: B1 VH
VL: B1 VL
notes: also called anti-FAM19A5-IgG2/4 antibody
As for B2, the binding result in assay [4] is listed as “no binding”.
